Patent US20220204609A1

Key:
[1] = target: Claudin18.2 protein (Genscript Biotech) (UniProt P56856); assay: ELISA, plate coated with Claudin18.2 antigen at 0.05 µg/mL, antibody at 1 µg/mL
[2] = target: Claudin18.2 protein (Genscript Biotech) (UniProt P56856); assay: ELISA, plate coated with Claudin18.2 antigen at 0.2 µg/mL, antibody at 1 µg/mL
[3] = target: Claudin18.2 protein (Genscript Biotech) (UniProt P56856); assay: ELISA, plate coated with Claudin18.2 antigen at 0.0125 µg/mL, antibody at 1 µg/mL
[4] = target: Claudin18.2 on cells (human) (UniProt P56856); assay: flow cytometry on NUGC4 cells, antibody at 1.5 µg/mL
[5] = target: Claudin18.1 on cells (human) (UniProt P56856); assay: flow cytometry on 293T-Claudin18.1 cells, antibody at 1.5 µg/mL
[6] = target: Claudin18.1 on cells (human) (UniProt P56856); assay: flow cytometry on 293T-Claudin18.1 cells, antibody at 0.375 µg/mL
[7] = target: Claudin18.2 on cells (human) (UniProt P56856); assay: flow cytometry on NUGC4 cells, antibody at 3 µg/mL
[8] = target: Claudin18.1 on cells (human) (UniProt P56856); assay: flow cytometry on 293T-Claudin18.1 cells, antibody at 3 µg/mL
[9] = target: Claudin18.2 on cells (human) (UniProt P56856); assay: flow cytometry on 293T-Claudin18.2 cells, antibody at 0.375 µg/mL
[10] = target: Claudin18.2 on cells (human) (UniProt P56856); assay: flow cytometry on NUGC4 cells, antibody at 0.75 µg/mL
[11] = target: Claudin18.2 on cells (human) (UniProt P56856); assay: flow cytometry on 293T-Claudin18.2 cells, antibody at 1.5 µg/mL
[12] = target: Claudin18.2 on cells (human) (UniProt P56856); assay: cell-based or functional assay
[13] = target: Claudin18.2 on cells (human) (UniProt P56856); assay: flow cytometry on 293T-Claudin18.2 cells, antibody at 0.75 µg/mL
[14] = target: Claudin18.1 on cells (human) (UniProt P56856); assay: flow cytometry on 293T-Claudin18.1 cells, antibody at 0.75 µg/mL
[15] = target: Claudin18.2 on cells (human) (UniProt P56856); assay: flow cytometry on 293T-Claudin18.2 cells, antibody at 3 µg/mL

OD450 [1] | OD450 [2] | OD450 [3] | mean fluorescence intensity [4] | mean fluorescence intensity [5] | mean fluorescence intensity [6] | mean fluorescence intensity [7] | mean fluorescence intensity [8] | mean fluorescence intensity [9] | mean fluorescence intensity [10] | mean fluorescence intensity [11] | ADCC inhibition rate, %, antibody 0.5 µg/mL, 293T-Claudin18.2 target cells, PBMC effectors, LDH [12] [%] | ADCC inhibition rate, %, antibody 5 µg/mL, 293T-Claudin18.2 target cells, PBMC effectors, LDH [12] [%] | ADCC inhibition rate, %, antibody 50 µg/mL, 293T-Claudin18.2 target cells, PBMC effectors, LDH [12] [%] | mean fluorescence intensity [13] | mean fluorescence intensity [14] | mean fluorescence intensity [15] | Binder
0.484 | 2.38 | 0.165 | – | – | – | – | – | – | – | – | – | – | – | – | – | – | CLDQ1-CA841-IgG1 (antibody, V domains shown) VH: QVQLVQSGAEVKKPGSSVKVSCKASGGTFSSYAISWVRQAPGQGLEWMGRIIPILGIANYAQKFQGRVTVTADKSTSTAYMELSSLRSEDTAVYYCARERDNWDPYYYYYGMDVWGQGTTVTVSS VL: DIQMTQSPSTLSASVGDRVTITCRASQSINSWLAWYQQKPGKAPKLLIYKASSLESGVPSRFSGSGSGTEFTLTISSLQPDDFATYYCQQYNSFPLTFGGGTKVEIKR
1.28 | 3.19 | 0.492 | 20400 | 17900 | 7960 | 42600 | 34400 | 9360 | 15000 | 34200 | 15 | 25 | 45 | 17300 | 15200 | 33300 | CLDMix-CA818-IgG1 (antibody, V domains shown) VH: GAATAVGRRTVEASETLSLTCAVYGGSFSGYYWSWIRQPPGKGLEWIGEINHSGSTNYNPSLKSRVTISVDTSKNQFSLKLSSVTAADTAVYYCARGPYDILTGYYPYWYFDLWGRGTLVTVSS VL: DIVMTQSPSTLSASVGDRVTITCRASQGIRNDLGWYQQKPGKAPKLLIYDASSLQSGVPSRFSGSGYGTDFTLTISSLQPEDFATYYCLQDYNYPWTFGQGTKLEIKR
